Measurements as given in the supplement of paper PMC10567573.
± gives the standard deviation.

Assay: protein stability index of a GFP-peptide fusion (GPS, HEK-293T) (PSI 1-6); higher = more stable
[1] = treatment: DMSO, c terminus: a fixed tail appended
[2] = treatment: MLN4924 1 uM, 8 h, c terminus: a fixed tail appended
[3] = treatment: DMSO, c terminus: native
[4] = treatment: MLN4924 1 uM, 8 h, c terminus: native
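Further: 24-mer peptide tiles fused after GFP, lentivirally expressed, FACS-sorted into six equal bins by GFP/DsRed ratio, decoded by Illumina sequencing, PSI is the read-weighted mean bin number.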

| Sequence | protein stability index [1] | protein stability index [2] | protein stability index [3] | protein stability index [4] |
| --- | --- | --- | --- | --- |
| IAEDGTKEIESQGSIPGFLISSGM [TAF7L] | 4.25 ± 0.28 | 4.21 ± 0.38 | – | – |
| TYRSLLESEDCKLPSNPCATTNAC [KRT33B] | 3.99 ± 0.26 | 4.04 ± 0.072 | – | – |
| QICAQVSFFFPPVNLPISFFRKLL [NLN] | 2.76 ± 0.039 | 3.45 ± 0.17 | – | – |
| ECPSMGTNEAACLLDNPLCADVLF [RHOBTB1] | 3.42 ± 0.34 | 3.94 ± 0.48 | – | – |
| RRHTSMERYDPNIDQWSMLGDMQT [KLHL12] | 3.86 ± 0.27 | 3.82 ± 0.26 | – | – |
| STDPNIVRKKERGREEKCVWKHGI [TAF7L] | 3.31 ± 0.37 | 3.51 ± 0.26 | – | – |
| YRALLSGSNPPYLPFRDASFGNCT [CDC14A] | 2.44 ± 0.091 | 2.49 ± 0.17 | – | – |
| EILEIDDLDAIVPAVKKLKVLSY [CEP70] | – | – | 2.87 ± 0.8 | 3.1 ± 0.041 |
| GIVVWNMDVERQETPEWLDSDSCQ [WDFY2] | 3.3 ± 0.2 | 3.5 ± 0.32 | – | – |
| PASAPGEPRQRRLLLLDLLALYTP [ANKRD9] | 2.25 ± 0.071 | 2.02 ± 0.48 | – | – |
| QLKWASWELHSLRHCDDDGRTENG [ZNF24] | 3.83 ± 0.31 | 4.04 ± 0.21 | – | – |
| KGAILTTMLATRNFSAAKSLLKKP [CAMK2D] | 2.82 ± 0.53 | 2.8 ± 0.32 | – | – |
| AMRAGVLADDHLIEVNGENVEDAS [PDZK1] | 5.41 ± 0.23 | 5.3 ± 0.11 | – | – |
| YIHFFHTVLKQIAPEYFEKNEPYL [DENND6A] | 1.96 ± 0.5 | 2.77 ± 0.53 | – | – |
| SSNGNDNGNGKNGGLEHVPSSSSI [BNIP3L] | 5.2 ± 0.29 | 5.33 ± 0.17 | – | – |
| RMLFWACSTNKPEGYRVSQALREN [FAF2] | 2.27 ± 0.16 | 2.46 ± 0.18 | – | – |
| NKVKVLDAPVPDCLGVHCDFHQGL [FSD1] | 3.26 ± 0.078 | 3.43 ± 0.24 | – | – |
| QTRNGLGKDHEILRRRIENGAKEL [FUT8] | 4.34 ± 0.33 | 4.33 ± 0.1 | – | – |
| DGENLKNEEETPSCMASLWTAPLV [CDC25A] | 4.484 ± 0.031 | 4.5 ± 0.19 | – | – |
| KIRLRCQKGIPPSLRGRAWQYLSG [TBC1D10A] | 2.21 ± 0.094 | 2.09 ± 0.23 | – | – |
| SDAWTYCISKNEWIQFNHPYTEKP [KLHDC2] | 2.34 ± 0.18 | 2.37 ± 0.26 | – | – |
| AGDAEVCPTPARLATTEKKTEQQR [NOP53] | 5.37 ± 0.23 | 5.44 ± 0.16 | – | – |
| EEEEGEEEELIRIFQEQQKKWQQY [FAM9B] | 4.02 ± 0.23 | 4.13 ± 0.28 | – | – |

| Sequence | protein stability index [1] | protein stability index [2] | protein stability index [3] | protein stability index [4] |
| --- | --- | --- | --- | --- |
| AHWQCGATLTQVSVEYGYRPGATA [FCHO1] | 2.29 ± 0.18 | 2.24 ± 0.49 | – | – |
| KRKRVKQRINTYVFVGNQLIPQPL [PCMTD1] | 2.38 ± 0.17 | 2.73 ± 0.35 | – | – |
| LVNMGISVVSYTLKDIHDDQDYLH [FLOT1] | 2.11 ± 0.24 | 2.22 ± 0.31 | – | – |
| VLEVTEESIDFDQGELADQDVDPV [FBXO33] | 5.34 ± 0.19 | 5.57 ± 0.2 | – | – |
| SPSENSKEAEILEVLRHPRDWVR [CPOX] | – | – | 4.42 ± 0.15 | 4.53 ± 0.26 |
| VTVRVPTHEEGSYLFWEFATDNYD [ACBD3] | 2.19 ± 0.34 | 2.31 ± 0.62 | – | – |
| GLIPTGSGRHPSHSTTPSGPGDEV [ARFIP2] | 5.08 ± 0.17 | 5.04 ± 0.1 | – | – |
| KTPEEAYRALLSGSNPPYLPFRDA [CDC14A] | 3.27 ± 0.3 | 3.31 ± 0.25 | – | – |
| ALCQGLYFHINQTLREAHFHSLQH [FAM104A] | 2.81 ± 0.54 | 2.8 ± 0.51 | – | – |
| RITKDNRRHCQACRLKRCVDIGMM [VDR] | 2.42 ± 0.36 | 2.68 ± 0.29 | – | – |
| MSSIICEGDTVSQELLDTVLVNLV [PDS5B] | 2.24 ± 0.22 | 2.14 ± 0.53 | – | – |
| CTDFCLRNLDGTLGYLLDKETLRL [ZER1] | 2 ± 0.23 | 2.13 ± 0.17 | – | – |
| GMASFRFPETTFISVTAYQNPQIT [TBX6] | 2.34 ± 0.62 | 2.29 ± 0.11 | – | – |
| ELNHGRQGENQEHLVIAEMMELGS [FATE1] | 4.3 ± 0.29 | 4.27 ± 0.36 | – | – |
| IKAVTHQVKFGQQNPRQVAQSEAE [ZC3H15] | 4.86 ± 0.2 | 4.9 ± 0.23 | – | – |
| VFGVPLTVNVQRTGQPLPQSIQQA [DLC1] | 2.79 ± 0.2 | 3 ± 0.43 | – | – |
| TLTVFPPEETTPSPSRESPLSAP [KLHL13] | – | – | 5.16 ± 0.15 | 5.18 ± 0.08 |
| DPDGEEGSSIPWNHLPDPEIFRQR [ZNF24] | 4.97 ± 0.45 | 5.02 ± 0.15 | – | – |
| ECRSSVTSDSEGAHVNTLHSGTKR [PHTF1] | 4.87 ± 0.32 | 4.88 ± 0.17 | – | – |
| LCDGNPRRPSPVLRHLELLDEFAR [SCNN1D] | 3.26 ± 0.087 | 3.53 ± 0.26 | – | – |
| VHNAMDNYECNLYTFLYLVCISTK [FEM1B] | 2.82 ± 0.59 | 2.2 ± 0.53 | – | – |
| LCTPEGWFSCQGPFDMDSCLSRHS [DFFB] | 2.52 ± 0.5 | 2.75 ± 0.38 | – | – |
| SSIPCSGSLDGRELSRQVRSSVEL [PPEF2] | 4.298 ± 0.036 | 4.17 ± 0.13 | – | – |

| Sequence | protein stability index [1] | protein stability index [2] | protein stability index [3] | protein stability index [4] |
| --- | --- | --- | --- | --- |
| LPNYNWNSFGLRFGKREAAPGNHG [KISS1] | 3.14 ± 0.36 | 3.36 ± 0.42 | – | – |
| YARYSLKSIDPVLMAPTCVFLASK [CCNC] | 2.16 ± 0.65 | 2 ± 0.3 | – | – |
| IEAKEACDWLRATGFPQYAQLYED [DLC1] | 3.21 ± 0.43 | 3.31 ± 0.083 | – | – |
| RRKEEEVQQQKLAEERRRQNLQEE [FAF2] | 5.56 ± 0.18 | 5.45 ± 0.37 | – | – |
| PNEAMVVSGFCRSPPVMVAGGRVF [FLOT1] | 2.2 ± 0.2 | 2.42 ± 0.26 | – | – |
| KVQELMSTHELEKKELEENFEKLR [MTUS2] | 4.97 ± 0.54 | 5.14 ± 0.23 | – | – |
| HSSDEDEDEDDEEDFEDDDEWED [WASL] | – | – | 3.19 ± 0.17 | 3.33 ± 0.47 |
| AELAGVIKRLWKDSGVQACFNRSR [GNAI1] | 2.62 ± 0.23 | 2.42 ± 0.72 | – | – |
| SLIGHLQTLSPDMQGAYCTFPASV [DUSP5] | 2.07 ± 0.35 | 2.2 ± 0.38 | – | – |
| AAARIRAQVPDTRWSRVGGQRFYS | 2.713 ± 0.004 | 3 ± 0.61 | – | – |
| GSGDSGDSSEEESHRVVLRPRGKE [LYSMD4] | 5.55 ± 0.19 | 5.35 ± 0.12 | – | – |
| LAGGYTSSLACHRALQDAFSGLFW [MNAT1] | 2.44 ± 0.12 | 2.45 ± 1 | – | – |
| VHRDLKPENLLLASKCKGAAVKLA [CAMK2B] | 2.83 ± 0.38 | 2.75 ± 0.25 | – | – |
| GKQPVSLPARRLKLRGRKRRQRG [CPXM2] | – | – | – | 3.59 ± 0.25 |
| FCLLSCGILTFLAVLGRYVPGLLL [RETREG3] | 2.36 ± 0.32 | 2.09 ± 0.23 | – | – |
| RTYFHEFGHVMHQICAQVSFFFPP [NLN] | 2.43 ± 0.43 | 3.41 ± 0.054 | – | – |
| AKFWPRRRFNFFVLENNLEAVARH [DNAAF3] | 2.13 ± 0.33 | 2.09 ± 0.19 | – | – |
| KNQGEENGFPDSTGDPLPEISKDN [EDARADD] | 5.5 ± 0.15 | 5.54 ± 0.067 | – | – |
| TIDNDIVSMEIFFKAWLHNSGTDQ [M1AP] | 2.5 ± 0.23 | 2.36 ± 0.084 | – | – |
| RAYFMSDTREEKRFLGEGHHRVQE [CHGB] | 3.87 ± 0.28 | 3.89 ± 0.06 | – | – |
| KLKVQALKDRGLSIPRADTLDEY [LSM1] | – | – | 4.01 ± 0.2 | 4.04 ± 0.33 |
| QPKQLIVDDLKGSLKEDLTQHKFI [SPRY1] | 4.14 ± 0.13 | 4.2 ± 0.22 | – | – |
| MVWNQNGKSPSITFEYTLLQPPHE [ADAMTSL2] | 2.23 ± 0.27 | 2.64 ± 0.37 | – | – |

| Sequence | protein stability index [1] | protein stability index [2] | protein stability index [3] | protein stability index [4] |
| --- | --- | --- | --- | --- |
| FAWSQGHRTVKLVPWSQCLQNFLL [WSB1] | 1.99 ± 0.83 | 2.3 ± 0.031 | – | – |
| LDDEDDDEEDCPNPEEYNLDEPNA [SRPK2] | 5.57 ± 0.22 | 5.58 ± 0.24 | – | – |
| ALHCPTGTEYTCKVYPVQEALAVL [TRIB3] | 2.27 ± 0.39 | 2.28 ± 0.32 | – | – |
| GEEAVTLVEDMQRELGRLRQQVTN [ZNF263] | 4.1 ± 0.14 | 4.02 ± 0.29 | – | – |
| SLVYYGLTLSAGDLGGSIYANLAL [SLC22A15] | 3.02 ± 0.6 | 2.91 ± 0.45 | – | – |
| SHRAAGSGVSDYDYLDLDKMSLYS [TRIM9] | 3.4 ± 0.21 | 3.44 ± 0.17 | – | – |
| SAEINQDLNIQLLKDGYRLDEIPD [FAM219A] | 4.91 ± 0.062 | 5.08 ± 0.18 | – | – |
| SEVSFEGAYGNLKRLYDKAAKMYH [SMG5] | 2.44 ± 0.29 | 2.23 ± 0.29 | – | – |
| PRPRPVSLSLRLPHQPVTAITRVS [SMTNL2] | 3.42 ± 0.24 | 3.58 ± 0.27 | – | – |
| ESKEPIEEEPTGAGLNKDKETEER [SDE2] | 5.57 ± 0.34 | 5.7 ± 0.13 | – | – |
| NVNRTTANNDHTVLSLACAGGHLA [ANKRD17] | 3.57 ± 0.3 | 3.7 ± 0.36 | – | – |
| SHQNLRVDDLSVEWDAMGGKVQDI [FSD1] | 4.49 ± 0.19 | 4.47 ± 0.28 | – | – |
| AMCVRYDGVEVDDSYCDALTRPEP [ADAMTSL2] | 4.37 ± 0.33 | 4.31 ± 0.28 | – | – |
| DFLMCYSVAEGYYSHRETVNGSWY [CASP6] | 2.88 ± 0.8 | 2.86 ± 0.79 | – | – |
| WCLHVNNWLQVSFTAKHANKVKVL [FSD1] | 3.04 ± 0.73 | 2.93 ± 0.5 | – | – |
| VFVLIDEVESLTAARNACRAGTEP [TRIP13] | 2.35 ± 0.2 | 2.63 ± 0.36 | – | – |
| TNDGNHPSCQETRDYAPPSRGYAY [RBMY1A1] | 4.33 ± 0.12 | 4.36 ± 0.11 | – | – |
| GYSDRDGYGRDRDYSDHPSGGSYR [RBMX] | 4.6 ± 0.31 | 4.81 ± 0.45 | – | – |
| VFNAARDGKLRLLTKLLASKSKEE [FEM1C] | 2.48 ± 0.21 | 2.75 ± 0.3 | – | – |
| EEFCEFVKSNTEQMREAFATAFSK [ZBED1] | 3.76 ± 0.27 | 3.98 ± 0.32 | – | – |
